Measured values from paper PMC5775914 (Cell chemical biology, 2017).

Target: fluorescein-labeled histone H3 N-terminal peptide (residues 1-21) (UniProt P68431 2-22, fluorescein-labeled (position not given))
Experiment: fluorescence polarisation

Kd: 50 to 100 µM
B1: recombinant UBR7 PHD finger (domain or fragment)
chain: GLYCICKRPYPDPEDEIPDEMIQCVVCEDWFHGRHLGAIPPESGDFQEMVCQACMKR
